From the supplement of paper PMC9732359
± gives the uncertainty stated by the source.

Experiment: protein stability index of a GFP-peptide fusion (yeast GPS) (PSI 1-4); higher = more stable; sorted into four equal gates, so the index is relative within each strain
Outline: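 Sequencing reads from sorted gates were used to score each peptide. The library consisted of tiled 17-residue yeast protein peptides fused downstream of GFP on a Cherry-expressing plasmid, pooled and carried in yeast. Mid-log cultures in leucine-free medium were split into four equal gates by GFP/Cherry ratio, and each gate's plasmids were PCR-amplified and Illumina-sequenced. The protein stability index adds up, over all gates, the read frequency multiplied by the gate number.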

IVDDYWESLAKKQNLSS [SWP82]
protein stability index (doa10∆): 2.91 ± 0.073 | protein stability index (pdr5∆): 2.93 ± 0.089 | protein stability index (san1∆): 3.45 ± 0.1 | protein stability index (ubr1∆): 2.96 ± 0.059

FDDILKVGAEMMMQQQL [MED2]
protein stability index (doa10∆): 2.66 ± 0.11 | protein stability index (pdr5∆): 2.44 ± 0.093 | protein stability index (san1∆): 2.53 ± 0.13 | protein stability index (ubr1∆): 2.46 ± 0.086

KMSDGFNGADIRNCATE [RPT4]
protein stability index (doa10∆): 3.43 ± 0.074 | protein stability index (pdr5∆): 3.47 ± 0.059 | protein stability index (san1∆): 3.35 ± 0.041 | protein stability index (ubr1∆): 3.3 ± 0.043

YQSLKQIVQVLKQPPFQ [SSN8]
protein stability index (doa10∆): 1.43 ± 0.082 | protein stability index (pdr5∆): 2.22 ± 0.11 | protein stability index (ubr1∆): 1.46 ± 0.097

TVPEYLKTADNRDRSFQ [PGD1]
protein stability index (doa10∆): 3.08 ± 0.084 | protein stability index (pdr5∆): 3.07 ± 0.079 | protein stability index (san1∆): 3.3 ± 0.038 | protein stability index (ubr1∆): 3.07 ± 0.049

WEISNPDFLSKYSAITS [NUT1]
protein stability index (doa10∆): 1.54 ± 0.045 | protein stability index (pdr5∆): 2.06 ± 0.044 | protein stability index (san1∆): 1.51 ± 0.073 | protein stability index (ubr1∆): 1.59 ± 0.041

KEEELIERDSLVDDENE [BRN1]
protein stability index (ubr1∆): 3.25 ± 0.15

SMRVKPSASLKLHHDLK [YMR129W/POM152]
protein stability index (doa10∆): 3.14 ± 0.079 | protein stability index (pdr5∆): 2.98 ± 0.064 | protein stability index (san1∆): 2.95 ± 0.062 | protein stability index (ubr1∆): 3.1 ± 0.048

LSEATESDLYKLKECPF [RPB2]
protein stability index (doa10∆): 3.12 ± 0.11 | protein stability index (pdr5∆): 2.91 ± 0.19 | protein stability index (san1∆): 3.23 ± 0.1 | protein stability index (ubr1∆): 2.91 ± 0.1

SHHLKADTIDHDELIDS [YGL172W/NUP49]
protein stability index (doa10∆): 3.03 ± 0.063 | protein stability index (pdr5∆): 3.25 ± 0.046 | protein stability index (san1∆): 3.08 ± 0.042 | protein stability index (ubr1∆): 3.08 ± 0.038

GLTTVWLLSALGNSIVK [REC8]
protein stability index (doa10∆): 1.61 ± 0.085 | protein stability index (pdr5∆): 2.31 ± 0.075 | protein stability index (san1∆): 2.13 ± 0.14 | protein stability index (ubr1∆): 1.77 ± 0.12

LHKRLHGVSFKKRAPRA [RPL31A]
protein stability index (doa10∆): 2.9 ± 0.12 | protein stability index (pdr5∆): 2.73 ± 0.13 | protein stability index (san1∆): 3 ± 0.16 | protein stability index (ubr1∆): 3.17 ± 0.11

VIELPLKNPEIFQRVGI [RPT4]
protein stability index (doa10∆): 2.17 ± 0.11 | protein stability index (pdr5∆): 2.16 ± 0.21 | protein stability index (san1∆): 2.46 ± 0.12 | protein stability index (ubr1∆): 2.29 ± 0.17

DDLADDDFEEDEDEEDD [RPC31]
protein stability index (pdr5∆): 3.31 ± 0.12 | protein stability index (san1∆): 3.21 ± 0.09 | protein stability index (ubr1∆): 3.46 ± 0.29

EKRIQYAKDILQKEFLP [RPB2]
protein stability index (doa10∆): 2.06 ± 0.055 | protein stability index (pdr5∆): 1.85 ± 0.052 | protein stability index (san1∆): 2.06 ± 0.091 | protein stability index (ubr1∆): 2.08 ± 0.09

LSQLCAVPLQIVSPQSN [RPO21]
protein stability index (doa10∆): 1.88 ± 0.063 | protein stability index (pdr5∆): 1.91 ± 0.058 | protein stability index (san1∆): 1.9 ± 0.084 | protein stability index (ubr1∆): 1.87 ± 0.04

VAGGVAGGEAGEAEAEK [RPP1A]
protein stability index (pdr5∆): 3.26 ± 0.17 | protein stability index (ubr1∆): 3.45 ± 0.13

ITRSVMRFNIEIIADWI [BRR2]
protein stability index (doa10∆): 3.04 ± 0.071 | protein stability index (pdr5∆): 2.7 ± 0.078 | protein stability index (san1∆): 2.57 ± 0.097 | protein stability index (ubr1∆): 3.16 ± 0.065

EESWEKVVEFAITHMID [SCL1]
protein stability index (doa10∆): 2.62 ± 0.087 | protein stability index (pdr5∆): 2.92 ± 0.098 | protein stability index (san1∆): 3.06 ± 0.083 | protein stability index (ubr1∆): 2.91 ± 0.07

LLGPTLEDHTPPEDKPN [QCR10]
protein stability index (doa10∆): 2.5 ± 0.057 | protein stability index (pdr5∆): 2.81 ± 0.064 | protein stability index (san1∆): 2.94 ± 0.082 | protein stability index (ubr1∆): 2.94 ± 0.033

IYRVRVRRGNRKRPVPK [RPL15A]
protein stability index (pdr5∆): 2.86 ± 0.2 | protein stability index (ubr1∆): 3.2 ± 0.14

YQWRDLIARRDDESPRF [RRP6]
protein stability index (doa10∆): 3.23 ± 0.077 | protein stability index (pdr5∆): 3.42 ± 0.067 | protein stability index (san1∆): 3.24 ± 0.057 | protein stability index (ubr1∆): 3.26 ± 0.068

VSTAKFSGKYLKYLTKK [RPL22A]
protein stability index (doa10∆): 3.17 ± 0.12 | protein stability index (pdr5∆): 3.29 ± 0.11 | protein stability index (san1∆): 3.41 ± 0.2 | protein stability index (ubr1∆): 3.26 ± 0.12

PQNEKPPAYALLGSCQT [RPC25]
protein stability index (doa10∆): 2.83 ± 0.26 | protein stability index (pdr5∆): 2.76 ± 0.17 | protein stability index (ubr1∆): 2.45 ± 0.13

DHASIRRGYQVYREVCA [CYT1]
protein stability index (doa10∆): 1.87 ± 0.06 | protein stability index (pdr5∆): 1.5 ± 0.052 | protein stability index (san1∆): 1.27 ± 0.09 | protein stability index (ubr1∆): 1.71 ± 0.036

EEQRSDTKNSKSESPSE [ISW2]
protein stability index (pdr5∆): 3.21 ± 0.23

SQLLLERLMISSDAFEV [RET1]
protein stability index (doa10∆): 1.8 ± 0.08 | protein stability index (pdr5∆): 2.4 ± 0.044 | protein stability index (san1∆): 1.98 ± 0.058 | protein stability index (ubr1∆): 1.86 ± 0.049

YSPTSPSYSPTSPGYSP [RPO21]
protein stability index (doa10∆): 2.8 ± 0.044 | protein stability index (pdr5∆): 2.94 ± 0.037 | protein stability index (san1∆): 2.95 ± 0.039 | protein stability index (ubr1∆): 2.95 ± 0.034

PTMYTRLCICSGMLFEM [SIN4]
protein stability index (doa10∆): 1.29 ± 0.041 | protein stability index (pdr5∆): 1.28 ± 0.041 | protein stability index (san1∆): 1.39 ± 0.08 | protein stability index (ubr1∆): 1.44 ± 0.033

VLLDARDIEKITSLYAL [CDC53]
protein stability index (doa10∆): 1.69 ± 0.038 | protein stability index (pdr5∆): 1.99 ± 0.034 | protein stability index (san1∆): 1.72 ± 0.06 | protein stability index (ubr1∆): 2.02 ± 0.029

IQTVVISLLALPHSPLW [YML031W/NDC1]
protein stability index (doa10∆): 1.36 ± 0.076 | protein stability index (pdr5∆): 1.58 ± 0.063 | protein stability index (san1∆): 1.36 ± 0.1 | protein stability index (ubr1∆): 2 ± 0.049

QAINLGQVVLTPLTFAL [RPL14A]
protein stability index (doa10∆): 1.53 ± 0.065 | protein stability index (pdr5∆): 1.43 ± 0.049 | protein stability index (san1∆): 1.25 ± 0.09 | protein stability index (ubr1∆): 1.35 ± 0.067

LFVFTEGWPKFQDTLYK [QCR10]
protein stability index (doa10∆): 3.21 ± 0.19 | protein stability index (pdr5∆): 2.91 ± 0.22 | protein stability index (san1∆): 3.08 ± 0.12

SFVHGVVGQLFQIDNDN [SMC2]
protein stability index (doa10∆): 3.11 ± 0.16 | protein stability index (pdr5∆): 3.13 ± 0.12 | protein stability index (san1∆): 3.13 ± 0.068 | protein stability index (ubr1∆): 3.25 ± 0.13

EKLLKELENNEFTENEL [ITC1]
protein stability index (doa10∆): 3.43 ± 0.074 | protein stability index (pdr5∆): 3.21 ± 0.078 | protein stability index (san1∆): 3.33 ± 0.069 | protein stability index (ubr1∆): 3.33 ± 0.097

FLSPYISTHLKTICNLL [IRR1]
protein stability index (doa10∆): 1.57 ± 0.05 | protein stability index (pdr5∆): 1.76 ± 0.065 | protein stability index (san1∆): 1.69 ± 0.1 | protein stability index (ubr1∆): 1.29 ± 0.038

DELETKAEKKVELHGKR [PRP8]
protein stability index (doa10∆): 2.84 ± 0.19 | protein stability index (pdr5∆): 2.95 ± 0.17 | protein stability index (san1∆): 3.4 ± 0.26 | protein stability index (ubr1∆): 2.63 ± 0.18

VMFATNRPNTLDPALLR [RPT1]
protein stability index (doa10∆): 2.81 ± 0.075 | protein stability index (pdr5∆): 3.05 ± 0.079 | protein stability index (san1∆): 2.9 ± 0.062 | protein stability index (ubr1∆): 2.91 ± 0.073

LTNLLSQLNIQLSQDEH [SRP72]
protein stability index (doa10∆): 3.01 ± 0.048 | protein stability index (pdr5∆): 3.03 ± 0.051 | protein stability index (san1∆): 3.21 ± 0.046 | protein stability index (ubr1∆): 3.09 ± 0.042

RLLITGTPLQNNLHELW [ISW2]
protein stability index (doa10∆): 2.68 ± 0.066 | protein stability index (pdr5∆): 2.61 ± 0.076 | protein stability index (san1∆): 2.99 ± 0.062 | protein stability index (ubr1∆): 2.83 ± 0.064

NNMLYPREDKENNRLLF [RPB9]
protein stability index (doa10∆): 3.13 ± 0.13 | protein stability index (pdr5∆): 3.43 ± 0.16 | protein stability index (san1∆): 2.78 ± 0.1 | protein stability index (ubr1∆): 3.25 ± 0.22

GQKNEVRILRLITTNSV [SNF2]
protein stability index (doa10∆): 2.21 ± 0.052 | protein stability index (pdr5∆): 1.95 ± 0.052 | protein stability index (san1∆): 2.14 ± 0.058 | protein stability index (ubr1∆): 2.08 ± 0.049

IAEGQKKFATVPTGGAS [RPP2B]
protein stability index (doa10∆): 2.81 ± 0.057 | protein stability index (pdr5∆): 2.89 ± 0.056 | protein stability index (san1∆): 2.69 ± 0.06 | protein stability index (ubr1∆): 2.53 ± 0.04

WGYQMVWAPTQKCFKLT [POP1]
protein stability index (doa10∆): 2.59 ± 0.069 | protein stability index (pdr5∆): 2.62 ± 0.068 | protein stability index (san1∆): 2.57 ± 0.069 | protein stability index (ubr1∆): 2.66 ± 0.067

RTLEAITATLVGTVRCE [CSL4]
protein stability index (doa10∆): 1.73 ± 0.12 | protein stability index (pdr5∆): 1.91 ± 0.12 | protein stability index (san1∆): 1.5 ± 0.14 | protein stability index (ubr1∆): 2.47 ± 0.16

VQESGNIDYQKGLLIWR [GRR1]
protein stability index (doa10∆): 3.35 ± 0.091 | protein stability index (pdr5∆): 3.13 ± 0.1 | protein stability index (san1∆): 3.37 ± 0.1 | protein stability index (ubr1∆): 2.75 ± 0.079

DVRRLKKNVWRSINNLI [BRN1]
protein stability index (doa10∆): 2.62 ± 0.29 | protein stability index (pdr5∆): 1.9 ± 0.11 | protein stability index (san1∆): 1.06 ± 0.15 | protein stability index (ubr1∆): 1.1 ± 0.063

PSGRTRGRSVMKESVVE [ESC2]
protein stability index (san1∆): 2.99 ± 0.19 | protein stability index (ubr1∆): 3.67 ± 0.22

TKHPSLKTLTHKQIHTT [POP7]
protein stability index (doa10∆): 2.21 ± 0.039 | protein stability index (pdr5∆): 2.4 ± 0.04 | protein stability index (san1∆): 2.21 ± 0.05 | protein stability index (ubr1∆): 2.48 ± 0.04

EDDSSNSCFSDGSQQNL [REC8]
protein stability index (doa10∆): 3.7 ± 0.22 | protein stability index (san1∆): 3.65 ± 0.12 | protein stability index (ubr1∆): 3.32 ± 0.1

RQPSLHKMSMMAHRVKV [RPO21]
protein stability index (doa10∆): 2.2 ± 0.085 | protein stability index (pdr5∆): 2.37 ± 0.073 | protein stability index (san1∆): 2.81 ± 0.09 | protein stability index (ubr1∆): 1.68 ± 0.082

SVRIDGRKVLQKVQGES [SIR4]
protein stability index (doa10∆): 2.75 ± 0.089 | protein stability index (pdr5∆): 3.11 ± 0.067 | protein stability index (san1∆): 2.98 ± 0.066 | protein stability index (ubr1∆): 2.88 ± 0.064

VPPPPVRPSISFNESQR [RPO21]
protein stability index (doa10∆): 2.47 ± 0.037 | protein stability index (pdr5∆): 2.78 ± 0.036 | protein stability index (san1∆): 2.62 ± 0.039 | protein stability index (ubr1∆): 2.45 ± 0.034
